Each block holds one binder with its values, some of them ahead of it.
Legend:
[1] = molecular target: T1, Recombinant human laminin-α4 (R&D systems) (human, UniProt Q16363-2 826-1816); test: SPR (Biacore T200), MCAM IgG1-2A captured by anti-Fc IgG, laminin in solution
T1 construct: also called laminin 4A chain; laminin A4 (α4) chain
T1 sequence (looked up): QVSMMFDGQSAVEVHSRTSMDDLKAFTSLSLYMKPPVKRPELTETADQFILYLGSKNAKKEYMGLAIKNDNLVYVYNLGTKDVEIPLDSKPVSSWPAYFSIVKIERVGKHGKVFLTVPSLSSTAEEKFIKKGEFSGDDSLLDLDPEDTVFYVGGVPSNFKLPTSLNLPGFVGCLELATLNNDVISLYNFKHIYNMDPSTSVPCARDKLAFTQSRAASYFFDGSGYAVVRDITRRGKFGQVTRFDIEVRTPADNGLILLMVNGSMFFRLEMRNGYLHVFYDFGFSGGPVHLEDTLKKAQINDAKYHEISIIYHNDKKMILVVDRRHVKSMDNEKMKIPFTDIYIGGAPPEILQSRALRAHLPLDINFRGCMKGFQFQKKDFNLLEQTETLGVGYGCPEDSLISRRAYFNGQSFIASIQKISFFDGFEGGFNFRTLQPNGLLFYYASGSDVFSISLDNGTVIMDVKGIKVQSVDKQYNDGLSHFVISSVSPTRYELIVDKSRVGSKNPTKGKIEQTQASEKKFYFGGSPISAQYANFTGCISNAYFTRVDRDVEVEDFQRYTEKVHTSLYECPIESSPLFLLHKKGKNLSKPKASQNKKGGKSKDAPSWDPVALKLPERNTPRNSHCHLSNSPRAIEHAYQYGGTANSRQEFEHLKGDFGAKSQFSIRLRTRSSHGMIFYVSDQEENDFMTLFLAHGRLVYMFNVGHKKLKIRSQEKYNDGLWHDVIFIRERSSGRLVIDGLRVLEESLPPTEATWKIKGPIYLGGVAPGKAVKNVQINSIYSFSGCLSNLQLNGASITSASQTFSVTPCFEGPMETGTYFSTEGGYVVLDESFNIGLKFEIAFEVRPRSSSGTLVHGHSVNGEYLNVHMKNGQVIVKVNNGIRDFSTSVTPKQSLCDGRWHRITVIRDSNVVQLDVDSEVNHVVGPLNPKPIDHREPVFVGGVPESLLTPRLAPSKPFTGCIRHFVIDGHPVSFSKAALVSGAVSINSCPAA
Protocol: The binding affinity of the human laminin-α4 to human MCAM IgG1-2A was measured by Surface Plasmon Resonance on a Biacore T200 machine. Human Fc-specific F(ab′)₂ IgG (Jackson Laboratories) was immobilized on a CM5 chip using amine coupling. The four flow cells of the CM5 chips dextran surface are activated by a 7 min injection of freshly prepared 1:1 50 mM NHS: EDC at a flow rate of 5 μl/min. 70 μl IgG solution (pH 4.5) was injected for 3 min to a density of up to 3 000 RU. The coupling is then blocked by a 7 min injection of 1M ethanolamine to deactivate residual reactive sites. Recombinant human Fc-tagged MCAM IgG1-2A in degassed and filtered HBS-P buffer containing 12 mg/ml BSA and 12 mg/ml carboxy-methylated dextran sodium salt was captured by anti-Fc IgG to a capture level 1560 RU. Recombinant human Fc-tagged MCAM IgG1-2A was centrifuged at 14 000 rpm for 5 min at 4° C. before injection for 20 min at a flow rate of 5 μl/min over the anti-Fc IgG containing surface. Flow cell 1 was left free of IgG to serve as a control surface. One flow cell was used to capture recombinant human IgG1 Fc (R&D systems) to serve as a negative control. […] Buffer injections served as negative control. Data evaluation: Data from the buffer injections and the control surface were subtracted to remove artifacts. […]

[2] = molecular target: T2, Recombinant human laminin 511 (Biolamina) (human, UniProt O15230 36-3695; P07942 22-1786; P11047 34-1609); test: SPR (Biacore T200)
T2 construct: Trimer α5β1γ1, bought; negative control

[3] = molecular target: T3, Murine MCAM domain 1 and 2 (Ig1-2A) with human IgG Fc tag (mouse, UniProt Q8R2Y2 24-244, limits assumed); test: ForteBio Octet Red, domains on anti-human IgG Fc biosensors
T3 construct: domain: domain 1 and 2 (Ig1-2A); also called MCAM Fc domains 1 and 2; not shown: human IgG Fc tag
T3 sequence (looked up): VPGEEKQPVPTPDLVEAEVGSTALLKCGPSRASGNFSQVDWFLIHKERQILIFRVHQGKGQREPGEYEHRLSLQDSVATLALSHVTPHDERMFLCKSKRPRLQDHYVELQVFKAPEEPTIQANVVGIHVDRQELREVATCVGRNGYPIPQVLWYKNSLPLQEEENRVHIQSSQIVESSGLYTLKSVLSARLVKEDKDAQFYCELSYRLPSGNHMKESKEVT
Text: (§1) The following protocol was used: ForteBio Domain Mapping Protocol. ForteBio anti-human IgG Fc biosensors were used to immobilize various mouse MCAMhFc domains including full length mouse MCAMhFc protein on to biosensor surface. These sensors were dipped into either clone 15 or 17 MCAM specific antibody for detection of binding to these domains or full length protein. After loading these samples into a black 96 well plate, the Octet Red was programmed as follows: 60 seconds for baseline #1; 180 seconds for loading various domains; 60 seconds for baseline #2; 180 seconds for association of antibody to domain; and 240 seconds for dissociation of antibody from domain.

[4] = molecular target: T4, Murine MCAM domain 1 (Ig1) with human IgG Fc tag (mouse, UniProt Q8R2Y2 24-131, limits assumed); test: as above
T4 construct: domain: domain 1 (Ig1); also called MCAM Fc domain 1; not shown: human IgG Fc tag
T4 sequence (looked up): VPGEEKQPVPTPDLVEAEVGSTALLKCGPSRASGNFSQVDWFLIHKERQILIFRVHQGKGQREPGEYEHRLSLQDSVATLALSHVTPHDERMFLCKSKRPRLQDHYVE
Text: as §1

[5] = molecular target: T5, human MCAM (on transfected cells) (human, UniProt P43121 24-646); test: flow cytometry on MCAM transfected cells mixed with CFSE-labelled untransfected cells
T5 construct: Cells transfected with human MCAM; also called CD146; MUC18
T5 chain: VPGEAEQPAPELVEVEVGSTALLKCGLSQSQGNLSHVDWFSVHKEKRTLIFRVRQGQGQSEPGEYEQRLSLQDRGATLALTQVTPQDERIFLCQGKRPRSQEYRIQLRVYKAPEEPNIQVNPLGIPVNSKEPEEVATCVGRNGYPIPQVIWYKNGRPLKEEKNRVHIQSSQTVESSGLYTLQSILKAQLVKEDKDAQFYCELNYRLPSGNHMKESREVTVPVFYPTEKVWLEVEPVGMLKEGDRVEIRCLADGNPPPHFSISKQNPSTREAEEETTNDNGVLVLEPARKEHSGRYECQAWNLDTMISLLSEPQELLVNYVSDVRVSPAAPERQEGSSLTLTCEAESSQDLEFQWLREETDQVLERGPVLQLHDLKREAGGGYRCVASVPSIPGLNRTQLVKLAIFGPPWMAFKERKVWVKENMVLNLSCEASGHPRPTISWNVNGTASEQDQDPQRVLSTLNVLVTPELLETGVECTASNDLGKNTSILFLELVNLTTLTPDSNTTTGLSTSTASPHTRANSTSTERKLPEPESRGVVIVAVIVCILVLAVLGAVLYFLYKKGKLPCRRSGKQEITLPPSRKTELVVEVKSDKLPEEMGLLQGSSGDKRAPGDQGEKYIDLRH
Protocol: (§2) MCAM-Fc was generated by fusing the extracellular domain of murine MCAM to human IgG and produced in CHO cells using standard techniques. Lou/M rats were immunized with 100 μg of MCAM-Fc protein in CFA (1:1 volume). Rats were boosted two times at two week intervals with MCAM-Fc protein in incomplete Freund's adjuvant (IFA) (1:1 volume). Hybridomas were generated from immunized rats using standard protocols and clones were selected by Clonepix. CHO cells were transfected with the full length murine MCAM gene and selected for stable expression using neomycin and standard techniques. Parental CHO cells (MCAM negative) were fluorescently labeled with carboxyfluorescein succinimidyl ester (CFSE) using standard techniques and mixed at a 1:1 ratio with unlabeled MCAM transfected CHO cells. Hybridoma supernatants were incubated with this mixture of cells for 30 minutes and binding of potential MCAM specific antibodies was detected with a fluorescently labeled anti-rat secondary antibody (Jackson Immuno) by flow cytometry.
(§3) Monoclonal antibodies against mouse MCAM were generated as described in Materials and Methods above. The specific binding between the monoclonal antibody and MCAM was confirmed by assessing the monoclonal antibody's ability to bind to cells transfected with either mouse or human MCAM. For this, untransfected cells were labeled with carboxyfluorescein succinimidyl ester (CFSE) and mixed with unlabeled MCAM transfected cells. Untransfected cells (in blue) could therefore be differentiated.

[6] = molecular target: T6, mouse MCAM (full length, on transfected CHO cells) (mouse, UniProt Q8R2Y2 24-648); test: as above
T6 construct: whole, on cells; also called murine MCAM; mouse MCAM transfected CHO cells
T6 sequence (looked up): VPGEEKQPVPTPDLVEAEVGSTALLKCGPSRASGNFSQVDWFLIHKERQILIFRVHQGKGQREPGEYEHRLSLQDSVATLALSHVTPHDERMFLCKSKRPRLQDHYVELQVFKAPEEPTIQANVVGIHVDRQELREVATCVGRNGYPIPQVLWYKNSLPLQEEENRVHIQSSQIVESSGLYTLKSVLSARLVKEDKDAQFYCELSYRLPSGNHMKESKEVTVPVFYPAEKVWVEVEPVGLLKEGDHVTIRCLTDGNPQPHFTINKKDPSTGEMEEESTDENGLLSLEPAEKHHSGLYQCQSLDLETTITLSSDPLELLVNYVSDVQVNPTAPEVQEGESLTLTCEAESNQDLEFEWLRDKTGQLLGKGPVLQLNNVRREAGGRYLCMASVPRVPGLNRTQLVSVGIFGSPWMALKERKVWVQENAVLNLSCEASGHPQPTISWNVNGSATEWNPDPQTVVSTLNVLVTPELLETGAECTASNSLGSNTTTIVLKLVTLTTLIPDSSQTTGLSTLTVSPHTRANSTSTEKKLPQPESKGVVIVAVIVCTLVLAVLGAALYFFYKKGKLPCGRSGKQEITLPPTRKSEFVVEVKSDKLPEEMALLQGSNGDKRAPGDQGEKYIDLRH
Protocol: as §2, §3

[7] = molecular target: T7, murine MCAM-Fc (extracellular domain of murine MCAM fused to human IgG) (mouse, UniProt Q8R2Y2 24-563); test: ForteBio Octet Red, anti-human IgG Fc biosensor loaded with mouse MCAMhFc (5 ug/ml), dipped into clone 17 (5 ug/ml) or SP2 media
T7 construct: extracellular domain; Produced in CHO cells; also called mouse MCAM-Fc protein; full length mouse MCAMhFc protein; not shown: human IgG (Fc) part
T7 sequence (looked up): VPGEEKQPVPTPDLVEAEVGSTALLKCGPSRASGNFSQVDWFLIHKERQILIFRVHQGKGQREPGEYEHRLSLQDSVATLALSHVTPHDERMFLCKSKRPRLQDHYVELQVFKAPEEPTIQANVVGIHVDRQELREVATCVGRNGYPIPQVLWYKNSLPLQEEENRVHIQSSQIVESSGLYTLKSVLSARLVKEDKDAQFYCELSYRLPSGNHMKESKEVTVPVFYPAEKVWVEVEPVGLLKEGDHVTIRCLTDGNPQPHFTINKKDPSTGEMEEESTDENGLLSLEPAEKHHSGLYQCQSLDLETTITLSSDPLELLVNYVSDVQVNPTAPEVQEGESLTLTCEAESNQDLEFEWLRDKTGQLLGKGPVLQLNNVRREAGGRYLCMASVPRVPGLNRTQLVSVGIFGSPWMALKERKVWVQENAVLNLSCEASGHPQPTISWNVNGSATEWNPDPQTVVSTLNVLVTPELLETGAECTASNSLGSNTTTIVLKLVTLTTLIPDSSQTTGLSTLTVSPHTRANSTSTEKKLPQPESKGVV
Text: as §1
(§4) For FIG. 10A-B, clones 15 and 17 were tested against the following protein samples (all have human IgG Fc tag): […]

[8] = molecular target: T8, Ig2 domain (mouse, UniProt Q8R2Y2); test: ForteBio Octet Red, anti-human IgG Fc biosensor loaded with the Ig2 domain hFc protein, dipped into clone 17 or SP2 media
T8 construct: immunoglobulin domain 2 alone; also called Murine MCAM domain 2 (Ig2)
T8 sequence (Fc fusion chain, looked up): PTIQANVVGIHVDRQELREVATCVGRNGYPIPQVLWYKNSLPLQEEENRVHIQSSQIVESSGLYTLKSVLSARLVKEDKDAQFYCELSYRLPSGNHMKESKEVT
Text: as §1, §4

Kd [1]: 60 nM
binding result [2]: no binding (tested: 5-175 nM)
B1: Recombinant human Fc-tagged MCAM IgG1-2A (Fc fusion)
chain: PRVAGVPGEAEQPAPELVEVEVGSTALLKCGLSQSQGNLSHVDWFSVHKEKRTLIFRVRQGQGQSEPGEYEQRLSLQDRGATLALTQVTPQDERIFLCQGKRPRSQEYRIQLRVYKAPEEPNIQVNPLGIPVNSKEPEEVATCVGRNGYPIPQVIWYKNGRPLKEEKNRVHIQSSQTVESSGLYTLQSILKAQLVKEDKDAQFYCELNYRLPSGNHMKESREVT
notes: also called human MCAM IgG1-2A; MCAM Fc domains 1 and 2; not shown: human Fc tag

binding result [3]: binds
binding result [4]: binds
binding result [5]: binds
binding result [6]: binds
binding result [7]: binds
binding result [8]: no binding (tested: 5 ug/ml)
B2: clone 17 monoclonal antibody (rat anti-MCAM) (antibody, V domains shown)
VH: EVQLVESGGGLVQPGRSLKLSCAASGFTFSNYYMAWVRQAPTKGLEWVASISFEGNRNHYGDSVKGRITISRDNAKSTLYLQMTSLRPEDTATYYCARHRGYSTNFYHDVLDAWGQGALVTVSS
VL: DVQMTQSPSYLATSPGESVSISCKASKNIDTYLAWYQEKPGKTNKLLIYSGSTLQSGTPSRFSGSGSGTDFTLTIRNLESEDFAVYYCQQHNEYPLTFGSGTKLEIKR
notes: Rat monoclonal from a hybridoma (Lou/M rats immunized with murine MCAM-Fc); also called anti-MCAM clone 17

Source: patent US20140314744A1 (NEOTOPE BIOSCIENCES, published 2014)
